This note sets out measurements from the nanobody polyreactivity screen of Harvey et al. (2022).

A short description of this data set: yeast display, Sf9 membrane polyspecificity reagent, FACS + sequencing; frameworks hold sequencing errors. The method, boiled down: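 Polyreactivity labels are assigned by the sorting gate from which each nanobody was recovered. The gates were low and high (top ~1%), set on anti-HA fluorescence for expression and streptavidin fluorescence for reagent binding. Before sorting, galactose-induced (36–48 hours) yeast display cells were stained for 1 hour at 4 °C with 10% biotinylated, detergent-solubilized Sf9 membrane reagent.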
“QVQLVESGGGLVQAGGSLRLSCAASGSTFTRYGMGWYRQAPGKEREMVAAITTSGSSTYYADSVKGRFTISRDNAKNTVYLQMNSLKPEDTAVYYCAADWSSWGFDYWGQGTQVNVSS”: the “polyreactivity (PSR sort gate)” value is listed as “low polyreactivity”.

In the case of “QVQLVESGGGLVQAGGSLRLSCAASGSTFTSNAMGWYRQAPGKERELVASISGSGGRTYYADSVKGRFTISRDNAKNTVYLQMNSLKPEDTAVYYCARRHSVRTVHGYDYWGQGTQVTVSS”, the “polyreactivity (PSR sort gate)” value is “low polyreactivity”.

Regarding “QVQLVESGGGLVQAGGSLRLSCAASGSTFTSYAKGCYRQAPGKERELVAAISRRGTSTYYADSVKGRFTISRDNAKHTVYLQMNSLKPEDTAVYYCAADGYYCEYYYWGQGTQVTVSS”, the “polyreactivity (PSR sort gate)” value is recorded as “high polyreactivity”.

On to “QVQLVESGGGLVQAGGSLRLSCAASGSTFTSYAMGWYRQAPGKEREFVAAISWSGGSTYYADSVKGRFTISRDNAKNTVYLQMNSLKPEDTAVYYCNAVLRSYYSPWYDYWGQATQVTVSS”, for which the “polyreactivity (PSR sort gate)” value is listed as “high polyreactivity”.

Take “QVQLVESGGGLVQAGGSLRLSCAASGSTFTSYAMGWYRQAPGKERELVAAISKSGGSTYYADSVKGRFTISRDNAKNTVSLQMNSLKPEDSAVFYCAARYIVRSYSTSRFDYWGQGTQVTVSS”: the “polyreactivity (PSR sort gate)” value was “low polyreactivity”.

For the sequence “QVQLVESGGGLVQAGGSLRLSCAASGSTFTSYTMGWYRQAPGKERELVARITRGGGSTYYADSVKGRFTISRDNAKNTVYLQMNSLKPEDTRSSPVLSYDYWGQGTQVTVSS”, the “polyreactivity (PSR sort gate)” value was “low polyreactivity”.

As to “QVQLVESGGGLVQAGGSLRLSCAASGSTFTSYTMGWYRQAPGKERELVARNTRGGGSTYYADSVKGRFTISRDNAKNTVYLQMNSLKPEDTAVYYCAKQVVGRAYYSWGQGTQVTVSS”, the “polyreactivity (PSR sort gate)” value is “low polyreactivity”.

For “QVQLVESGGGLVQAGGSLRLSCAASGSTFTTNVMGWYRQAPGKERELVAAISWSSGSTYYADSVKGRFTISRDNAKNTVSLPMNSLKPEDTAVYYCAARQVIFYPYSRYYYWGQGTQVTVSS”, the “polyreactivity (PSR sort gate)” value is on record as “high polyreactivity”.

“QVQLVESGGGLVQAGGSLRLSCAASGSTFTTYAMGWYRQAPGKERELVAAITVDGGGTYYADSVKGRFTISRDNAKNTVYLQMNSLKPVDTAVYYCAAVTKLGYPPVNHLEDDYWGQGTQVTVSS”: the “polyreactivity (PSR sort gate)” value was “low polyreactivity”.

For “QVQLVESGGGLVQAGGSLRLSCAASGSTFTTYGMGWYRQAPGKERELVAGITFRGGSTYYADSVKGRFTISRDNAKNTVYLQMNSLKPEDTAVYYCAAERWRWYYSWTMDYWGQGTQVTVSS”, the “polyreactivity (PSR sort gate)” value was “high polyreactivity”.

Regarding “QVQLVESGGGLVQAGGSLRLSCAASGSTFTVNGMGWYRQAPGKERELVAAITWSGGSTYYADSVKGRFTISRDTAKNTVYLQMNSLKPEDTAVYYCAADENLYITGYDYWGQGTQVNVSS”, the “polyreactivity (PSR sort gate)” value is listed as “low polyreactivity”.

As for “QVQLVESGGGLVQAGGSLRLSCAASGSTFTVYAMGWYRQAPGKEREFVAAITPSGASTYYADSVKGRFTISRDNAKNTVYLQMNSLKPEDTAVYYCNARSRTGYTNRMYYWGQGTQVTVSS”, the “polyreactivity (PSR sort gate)” value was “high polyreactivity”.

Consider “QVQLVESGGGLVQAGGSLRLSCAASGSTFTVYAMGWYRQAPGKERELVAAISESGTSTYYADSVKGRFTISRDNAKNTVYLQMNSLNPEDTAVYYCAADGPGTSEDDYWGQGTQVTVSS”, for which the “polyreactivity (PSR sort gate)” value is “high polyreactivity”.

Consider “QVQLVESGGGLVQAGGSLRLSCAASGSTFTWNAMGWYRQAPGTERELVAAITSGGRTYYADSVKGRFTISRDNAKNTVYLQMNSLKPEDTAVYYCAAKVRQYYSACNYYYWGQVTQVTVSS”, for which the “polyreactivity (PSR sort gate)” value is reported as “high polyreactivity”.

Consider “QVQLVESGGGLVQAGGSLRLSCAASGSTFTWNDMGRYRQAPGKERELVAGISLSAGSTYYADSVKGRFTISRDNAKNTDYLQMNSLKPEDTAVYYCNADPGGPDTYEEHDYWGQGTQVTVSS”, for which the “polyreactivity (PSR sort gate)” value was “low polyreactivity”.

“QVQLVESGGGLVQAGGSLRLSCAASGSTFTWYAMGWYRQAPGKERELVADISYGGGSTYYADSVKGRFTISRDNAKNTVYLQMNSLKPEDTAVYYCAAESIPYYSYDYWGQGTQVTVSS”: the “polyreactivity (PSR sort gate)” value is on record as “low polyreactivity”.

For “QVQLVESGGGLVQAGGSLRLSCAASGSTFTYNAMGWYRQAPGKERELVAAIRSNGGSTYADSVKGRFTISRDNAKNTVYLQMNCLKPEDTAVYYWAARWRDYYRWGSRGGYGYWGQGTQVTVSS”, the “polyreactivity (PSR sort gate)” value is recorded as “high polyreactivity”.

As to “QVQLVESGGGLVQAGGSLRLSCAASGSTFTYYAMGWYRKAPGKETELVAAIDFSGTSTYYADSVKGRFTISRDNAQNTVYLKMNSLKPEDTSVYYCAASQSWYWGGAHDNGEFGYWGQGTQVTVSS”, the “polyreactivity (PSR sort gate)” value is given as “low polyreactivity”.

“QVQLVESGGGLVQAGGSLRLSCAASGSTFTYYAMGWYRQAPGKERELVAAINYSGGSTYYADSVKGRFTISRDNAKNTVYLQMNSLKPEDTAVYYCAADGYIRQYVTYYYWGQGTQVTVSS”: the “polyreactivity (PSR sort gate)” value is given as “low polyreactivity”.

With “QVQLVESGGGLVQAGGSLRLSCAASGSTFTYYAMGWYRQAPGKERELVAAISSNGGSTSYADSVKGRFTISRDNAKNTVYLPMNRLKPEDTAVYYCAVYKWSTRVSQYRYDYWGQGTQVTVSS”, the “polyreactivity (PSR sort gate)” value was “high polyreactivity”.

Take “QVQLVESGGGLVQAGGSLRLSCAASGSTFTYYAMGWYRQAPGKERELVASISGSGSRTYYADSVKGRFTISRDTAKNTVYLQMNSLTPEDTAVYSCAARFYVRWYYYGSYANYWGQGTQVTVSS”: the “polyreactivity (PSR sort gate)” value is recorded as “high polyreactivity”.

Consider “QVQLVESGGGLVQAGGSLRLSCAASGSTFTYYAMGWYRQARGKERELVAAISSGGSTYYADSVKGRFTISRDNAKNTDYLQMNSLKPEDTAVYYCAARGYYGKFSGTGYWGQGTQVTVSS”, for which the “polyreactivity (PSR sort gate)” value is “high polyreactivity”.

On to “QVQLVESGGGLVQAGGSLRLSCAASGSTFVAYTMGWYRQAPGKERELVAAITKRGSSTYYADSVKGRFTISRDNAKNTVYLHMNSLKPEDTAVYYCAAARSLKSYEGDYWGQGTQVTVSS”, for which the “polyreactivity (PSR sort gate)” value is “high polyreactivity”.

Consider “QVQLVESGGGLVQAGGSLRLSCAASGSTFVDNAMGWCRQAPGKERELVADISSGGSTYYADSVKGRFTISRDNAKNTVYLQMNSLKPEDTAVYYCAARGVYRRGKYNSWGQGTQVTVSS”, for which the “polyreactivity (PSR sort gate)” value is given as “high polyreactivity”.

Consider “QVQLVESGGGLVQAGGSLRLSCAASGSTFVDNAMGWYRQAPGKERELVAAITSSGGSTYYADSVKGRFTISRDNAQNTVYLQMNSLKPEDTAVYYCAADEWIVHDGYYSSYYYWGQGTQVTVSS”, for which the “polyreactivity (PSR sort gate)” value is “low polyreactivity”.

Turning to “QVQLVESGGGLVQAGGSLRLSCAASGSTFVDNAMGWYRQAPGKERELVADISSGGSTYYADSVKGRFTISRDNAKNTVYLQMNSLKPEDTAVYYCAARRITSTDEYYWGQGTQVTVSS”, the “polyreactivity (PSR sort gate)” value is listed as “high polyreactivity”.

Consider “QVQLVESGGGLVQAGGSLRLSCAASGSTFVDYAMGWYRQAPGKEREFVAAISFSGDSTYYADSVKGRFTISRDNAKNSVYLQLNSLKPEDTAVYYCAASRPYYNRQYYRSWRDDYWGQGTQVTVSS”, for which the “polyreactivity (PSR sort gate)” value is listed as “low polyreactivity”.

Turning to “QVQLVESGGGLVQAGGSLRLSCAASGSTFVFYTMGWYRPAPGKERELVAGISRNGGSTYYADSVKGRFTISRDNAKNTVYLQMNSLKTEDSAVYYCAALTWSRAYYSRKFYYWGQGTQVTVSS”, the “polyreactivity (PSR sort gate)” value was “high polyreactivity”.

Consider “QVQLVESGGGLVQAGGSLRLSCAASGSTFVGNAKGWYRQAPGKERELVAAITGGGGSTYYADSVKGRFTISRDNAKNTVYLQMNSLKPEDTAVYYCARDRTDYYVCYVRYYYWGQGTQVTVSS”, for which the “polyreactivity (PSR sort gate)” value is given as “low polyreactivity”.

Take “QVQLVESGGGLVQAGGSLRLSCAASGSTFVGNAMGSYRQAPGKERELVATISNSGGRTYYADSVKGRFTISRDNAKNPVYLQRNSLKPEDTAVYYCPADHPAFGPGYSFDYWGQGTQVTVSS”: the “polyreactivity (PSR sort gate)” value is recorded as “low polyreactivity”.

Consider “QVQLVESGGGLVQAGGSLRLSCAASGSTFVGNSMGWYRKAPGKERELVAAISGSAGRTYYADSVKGRFTISRDNAKNTVYLQMNSLKPEDTAFYYCNKRYRGGVVYSRYDYWGQGTQVTVSS”, for which the “polyreactivity (PSR sort gate)” value was “low polyreactivity”.

On to “QVQLVESGGGLVQAGGSLRLSCAASGSTFVGNVMGWYRQAPGKERELVATISRSGGRTYYADSVKGRFTISRDNAKNTVYLQMNSLKPEDTAVYYCAAGFVYTTASRWGGRTRYDYWGQGTQVTVSS”, for which the “polyreactivity (PSR sort gate)” value is listed as “high polyreactivity”.

For “QVQLVESGGGLVQAGGSLRLSCAASGSTFVGYAMGWYRHAPGKERELVAAISSSGGRTNYADSVKGRFTISRDNAKNTVYLQMNSLKPEDTAVYYCAAKAYRSPVYYWGQGTQVTVSS”, the “polyreactivity (PSR sort gate)” value is listed as “high polyreactivity”.

Regarding “QVQLVESGGGLVQAGGSLRLSCAASGSTFVGYAMGWYRPAPGKDRELVADIDSIGGSTYYADSVKGRFTISRDNAKNTVYVQMNSPKPEDTAVYYCAKTWYPWSRSGYYRRYDSWGQGTQVTVSS”, the “polyreactivity (PSR sort gate)” value is reported as “low polyreactivity”.

In the case of “QVQLVESGGGLVQAGGSLRLSCAASGSTFVGYAMGWYRQAPGKERELVAAISGRGGSTYYADSVKGRFTISRDNAKNTVYLQMNSLKPEDTAVYYCNARRRKTVPNYIYNYWGQGTQVTVSS”, the “polyreactivity (PSR sort gate)” value is given as “high polyreactivity”.

“QVQLVESGGGLVQAGGSLRLSCAASGSTFVGYAMGWYRQAPGKERELVAAISRSGGRTYYADSVKGRFTISRDNAKNTVYLQMNSLKPEDTAVYYCYPYYIASTFDYWGQGTQVTVSS”: the “polyreactivity (PSR sort gate)” value is “high polyreactivity”.

For the sequence “QVQLVESGGGLVQAGGSLRLSCAASGSTFVGYAMGWYRQAPGKERELVADIDSIGGSTYYADSVKGRFTISRDNAKNTVYLQMNSMKPEDTAVYYCAARRFDTALVLYDYWGQGSQVTVSS”, the “polyreactivity (PSR sort gate)” value was “low polyreactivity”.

Regarding “QVQLVESGGGLVQAGGSLRLSCAASGSTFVINAMGWYRQAPGKERELVAAISYDGGGTYYADSVKGRFTISRDNAKNTVYLQMNSLKPEDTAGYYCAAENFYPYTYYASDYWGQGTHVTVSS”, the “polyreactivity (PSR sort gate)” value is on record as “high polyreactivity”.

With “QVQLVESGGGLVQAGGSLRLSCAASGSTFVIYAMGWYIQAPGKERELVAAINSGVSTYADSVKGRFTISRDNAKNTVYLQMNSLKPEDTAVYYCNAVSRPPYGPVFSAPAGGSWGQGTQVTVSS”, the “polyreactivity (PSR sort gate)” value is “low polyreactivity”.

Regarding “QVQLVESGGGLVQAGGSLRLSCAASGSTFVIYAMGWYRQAPGKERELVASIRGRTGSTYYADSVKGRFTISRDNAKNTVYLQMNSLKPEDTAVYYCAATPGYKSKMDYWGQGTQVTVSS”, the “polyreactivity (PSR sort gate)” value is recorded as “high polyreactivity”.
